Experimental data: patent publication US20210139548A1 (published 2021)
*1 amine or outer side, *2 acyl side, *3 side chain or, on linkers, in order; H or OH if unused. Side-chain parts run from the residue outwards. The star is where a group is joined. C18 diacid = O=C(O)CCCCCCCCCCCCCCCCC(=O)*; γGlu = O=C(O)[C@H](CCC(=O)[*:2])N[*:1]; Isovaleryl = CC(C)CC(=O)*; AEEA = NCCOCCOCC(=O)O

T1: human neuropeptide Y2 receptor (human, UniProt P49146 1-381)
T1 construct: whole, on cells; also called hNPY2 receptor; hNPY2-R
T1 sequence (looked up): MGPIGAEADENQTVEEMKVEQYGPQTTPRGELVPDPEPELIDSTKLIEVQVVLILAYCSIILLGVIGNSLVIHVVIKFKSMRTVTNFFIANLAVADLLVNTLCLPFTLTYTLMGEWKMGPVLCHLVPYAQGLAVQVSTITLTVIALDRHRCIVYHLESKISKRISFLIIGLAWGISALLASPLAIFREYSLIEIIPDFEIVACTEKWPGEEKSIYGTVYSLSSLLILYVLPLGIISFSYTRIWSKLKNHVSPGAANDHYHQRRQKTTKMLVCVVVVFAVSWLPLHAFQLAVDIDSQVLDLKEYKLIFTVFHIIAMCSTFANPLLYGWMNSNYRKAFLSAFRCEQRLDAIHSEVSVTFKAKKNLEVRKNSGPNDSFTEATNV


Target: T1, human neuropeptide Y2 receptor
Experiment: radioligand competition (125I-PYY(1-36)), hNPY2R membranes
Summary of the method: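 Commercial human Y2 receptor membranes (0.5 μg protein/well) were incubated with peptide for 2 h at room temperature in 50 mM HEPES, 5 mM MgCl₂, 1 mM CaCl₂, pH 7.4, with 0.2% ovalbumin. Bound radioligand was separated on PEI-soaked GF/C filters and counted by scintillation, and IC₅₀ came from nonlinear sigmoidal regression.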

Row | Binder | Ki
1 | Isovaleryl-APEK([AEEA-AEEA-γGlu-C18 diacid])PEEEASPEELQRYYVELRHYYNWLTRQRY-NH2 (SMILES CC(C)CC(=O)N[C@@H](C)C(=O)N1CCC[C@H]1C(=O)N[C@@H](CCC(=O)O)C(=O)N[C@@H](CCCCNC(=O)COCCOCCNC(=O)COCCOCCNC(=O)CC[C@H](NC(=O)CCCCCCCCCCCCCCCCC(=O)O)C(=O)O)C(=O)N1CCC[C@H]1C(=O)N[C@@H](CCC(=O)O)C(=O)N[C@@H](CCC(=O)O)C(=O)N[C@@H](CCC(=O)O)C(=O)N[C@@H](C)C(=O)N[C@@H](CO)C(=O)N1CCC[C@H]1C(=O)N[C@@H](CCC(=O)O)C(=O)N[C@@H](CCC(=O)O)C(=O)N[C@@H](CC(C)C)C(=O)N[C@@H](CCC(N)=O)C(=O)N[C@@H](CCCNC(=N)N)C(=O)N[C@@H](Cc1ccc(O)cc1)C(=O)N[C@@H](Cc1ccc(O)cc1)C(=O)N[C@H](C(=O)N[C@@H](CCC(=O)O)C(=O)N[C@@H](CC(C)C)C(=O)N[C@@H](CCCNC(=N)N)C(=O)N[C@@H](Cc1c[nH]cn1)C(=O)N[C@@H](Cc1ccc(O)cc1)C(=O)N[C@@H](Cc1ccc(O)cc1)C(=O)N[C@@H](CC(N)=O)C(=O)N[C@@H](Cc1c[nH]c2ccccc12)C(=O)N[C@@H](CC(C)C)C(=O)N[C@H](C(=O)N[C@@H](CCCNC(=N)N)C(=O)N[C@@H](CCC(N)=O)C(=O)N[C@@H](CCCNC(=N)N)C(=O)N[C@@H](Cc1ccc(O)cc1)C(N)=O)[C@@H](C)O)C(C)C) [Compound 185] | 3.58 nM
2 | Isovaleryl-APEK([AEEA-AEEA-γGlu-C18 diacid])PEEDASEAELQRYYVSLRHYYNWLTRQRY-NH2 (SMILES CC(C)CC(=O)N[C@@H](C)C(=O)N1CCC[C@H]1C(=O)N[C@@H](CCC(=O)O)C(=O)N[C@@H](CCCCNC(=O)COCCOCCNC(=O)COCCOCCNC(=O)CC[C@H](NC(=O)CCCCCCCCCCCCCCCCC(=O)O)C(=O)O)C(=O)N1CCC[C@H]1C(=O)N[C@@H](CCC(=O)O)C(=O)N[C@@H](CCC(=O)O)C(=O)N[C@@H](CC(=O)O)C(=O)N[C@@H](C)C(=O)N[C@@H](CO)C(=O)N[C@@H](CCC(=O)O)C(=O)N[C@@H](C)C(=O)N[C@@H](CCC(=O)O)C(=O)N[C@@H](CC(C)C)C(=O)N[C@@H](CCC(N)=O)C(=O)N[C@@H](CCCNC(=N)N)C(=O)N[C@@H](Cc1ccc(O)cc1)C(=O)N[C@@H](Cc1ccc(O)cc1)C(=O)N[C@H](C(=O)N[C@@H](CO)C(=O)N[C@@H](CC(C)C)C(=O)N[C@@H](CCCNC(=N)N)C(=O)N[C@@H](Cc1c[nH]cn1)C(=O)N[C@@H](Cc1ccc(O)cc1)C(=O)N[C@@H](Cc1ccc(O)cc1)C(=O)N[C@@H](CC(N)=O)C(=O)N[C@@H](Cc1c[nH]c2ccccc12)C(=O)N[C@@H](CC(C)C)C(=O)N[C@H](C(=O)N[C@@H](CCCNC(=N)N)C(=O)N[C@@H](CCC(N)=O)C(=O)N[C@@H](CCCNC(=N)N)C(=O)N[C@@H](Cc1ccc(O)cc1)C(N)=O)[C@@H](C)O)C(C)C) [Compound 189] | 2.08 nM
3 | Isovaleryl-APEK([AEEA-AEEA-γGlu-C18 diacid])PEEDASPEELQRYYISLRHYYNWLTRQRY-NH2 (SMILES CC[C@H](C)[C@H](NC(=O)[C@H](Cc1ccc(O)cc1)NC(=O)[C@H](Cc1ccc(O)cc1)NC(=O)[C@H](CCCNC(=N)N)NC(=O)[C@H](CCC(N)=O)NC(=O)[C@H](CC(C)C)NC(=O)[C@H](CCC(=O)O)NC(=O)[C@H](CCC(=O)O)NC(=O)[C@@H]1CCCN1C(=O)[C@H](CO)NC(=O)[C@H](C)NC(=O)[C@H](CC(=O)O)NC(=O)[C@H](CCC(=O)O)NC(=O)[C@H](CCC(=O)O)NC(=O)[C@@H]1CCCN1C(=O)[C@H](CCCCNC(=O)COCCOCCNC(=O)COCCOCCNC(=O)CC[C@H](NC(=O)CCCCCCCCCCCCCCCCC(=O)O)C(=O)O)NC(=O)[C@H](CCC(=O)O)NC(=O)[C@@H]1CCCN1C(=O)[C@H](C)NC(=O)CC(C)C)C(=O)N[C@@H](CO)C(=O)N[C@@H](CC(C)C)C(=O)N[C@@H](CCCNC(=N)N)C(=O)N[C@@H](Cc1c[nH]cn1)C(=O)N[C@@H](Cc1ccc(O)cc1)C(=O)N[C@@H](Cc1ccc(O)cc1)C(=O)N[C@@H](CC(N)=O)C(=O)N[C@@H](Cc1c[nH]c2ccccc12)C(=O)N[C@@H](CC(C)C)C(=O)N[C@H](C(=O)N[C@@H](CCCNC(=N)N)C(=O)N[C@@H](CCC(N)=O)C(=O)N[C@@H](CCCNC(=N)N)C(=O)N[C@@H](Cc1ccc(O)cc1)C(N)=O)[C@@H](C)O) [Compound 191] | 1.7 nM
4 | Isovaleryl-APEK([AEEA-AEEA-γGlu-C18 diacid])PEEDASPEELQRYYVSLRHQYNWLTRQRY-NH2 (SMILES CC(C)CC(=O)N[C@@H](C)C(=O)N1CCC[C@H]1C(=O)N[C@@H](CCC(=O)O)C(=O)N[C@@H](CCCCNC(=O)COCCOCCNC(=O)COCCOCCNC(=O)CC[C@H](NC(=O)CCCCCCCCCCCCCCCCC(=O)O)C(=O)O)C(=O)N1CCC[C@H]1C(=O)N[C@@H](CCC(=O)O)C(=O)N[C@@H](CCC(=O)O)C(=O)N[C@@H](CC(=O)O)C(=O)N[C@@H](C)C(=O)N[C@@H](CO)C(=O)N1CCC[C@H]1C(=O)N[C@@H](CCC(=O)O)C(=O)N[C@@H](CCC(=O)O)C(=O)N[C@@H](CC(C)C)C(=O)N[C@@H](CCC(N)=O)C(=O)N[C@@H](CCCNC(=N)N)C(=O)N[C@@H](Cc1ccc(O)cc1)C(=O)N[C@@H](Cc1ccc(O)cc1)C(=O)N[C@H](C(=O)N[C@@H](CO)C(=O)N[C@@H](CC(C)C)C(=O)N[C@@H](CCCNC(=N)N)C(=O)N[C@@H](Cc1c[nH]cn1)C(=O)N[C@@H](CCC(N)=O)C(=O)N[C@@H](Cc1ccc(O)cc1)C(=O)N[C@@H](CC(N)=O)C(=O)N[C@@H](Cc1c[nH]c2ccccc12)C(=O)N[C@@H](CC(C)C)C(=O)N[C@H](C(=O)N[C@@H](CCCNC(=N)N)C(=O)N[C@@H](CCC(N)=O)C(=O)N[C@@H](CCCNC(=N)N)C(=O)N[C@@H](Cc1ccc(O)cc1)C(N)=O)[C@@H](C)O)C(C)C) [Compound 187] | 2.76 nM

Further lines, results first:

Row | Ki | Binder
5 | 1.65 nM | Isovaleryl-APEK([AEEA-AEEA-γGlu-C18 diacid])PEEDAAPAELQRYYVSLRHYYNWLTRQRY-NH2 (SMILES CC(C)CC(=O)N[C@@H](C)C(=O)N1CCC[C@H]1C(=O)N[C@@H](CCC(=O)O)C(=O)N[C@@H](CCCCNC(=O)COCCOCCNC(=O)COCCOCCNC(=O)CC[C@H](NC(=O)CCCCCCCCCCCCCCCCC(=O)O)C(=O)O)C(=O)N1CCC[C@H]1C(=O)N[C@@H](CCC(=O)O)C(=O)N[C@@H](CCC(=O)O)C(=O)N[C@@H](CC(=O)O)C(=O)N[C@@H](C)C(=O)N[C@@H](C)C(=O)N1CCC[C@H]1C(=O)N[C@@H](C)C(=O)N[C@@H](CCC(=O)O)C(=O)N[C@@H](CC(C)C)C(=O)N[C@@H](CCC(N)=O)C(=O)N[C@@H](CCCNC(=N)N)C(=O)N[C@@H](Cc1ccc(O)cc1)C(=O)N[C@@H](Cc1ccc(O)cc1)C(=O)N[C@H](C(=O)N[C@@H](CO)C(=O)N[C@@H](CC(C)C)C(=O)N[C@@H](CCCNC(=N)N)C(=O)N[C@@H](Cc1c[nH]cn1)C(=O)N[C@@H](Cc1ccc(O)cc1)C(=O)N[C@@H](Cc1ccc(O)cc1)C(=O)N[C@@H](CC(N)=O)C(=O)N[C@@H](Cc1c[nH]c2ccccc12)C(=O)N[C@@H](CC(C)C)C(=O)N[C@H](C(=O)N[C@@H](CCCNC(=N)N)C(=O)N[C@@H](CCC(N)=O)C(=O)N[C@@H](CCCNC(=N)N)C(=O)N[C@@H](Cc1ccc(O)cc1)C(N)=O)[C@@H](C)O)C(C)C) [Compound 192]
6 | 3.81 nM | Isovaleryl-APEK([AEEA-AEEA-γGlu-C18 diacid])PEEDASEEEIQRYYVSLRHYYNWLTRQRY-NH2 (SMILES CC[C@H](C)[C@H](NC(=O)[C@H](CCC(=O)O)NC(=O)[C@H](CCC(=O)O)NC(=O)[C@H](CCC(=O)O)NC(=O)[C@H](CO)NC(=O)[C@H](C)NC(=O)[C@H](CC(=O)O)NC(=O)[C@H](CCC(=O)O)NC(=O)[C@H](CCC(=O)O)NC(=O)[C@@H]1CCCN1C(=O)[C@H](CCCCNC(=O)COCCOCCNC(=O)COCCOCCNC(=O)CC[C@H](NC(=O)CCCCCCCCCCCCCCCCC(=O)O)C(=O)O)NC(=O)[C@H](CCC(=O)O)NC(=O)[C@@H]1CCCN1C(=O)[C@H](C)NC(=O)CC(C)C)C(=O)N[C@@H](CCC(N)=O)C(=O)N[C@@H](CCCNC(=N)N)C(=O)N[C@@H](Cc1ccc(O)cc1)C(=O)N[C@@H](Cc1ccc(O)cc1)C(=O)N[C@H](C(=O)N[C@@H](CO)C(=O)N[C@@H](CC(C)C)C(=O)N[C@@H](CCCNC(=N)N)C(=O)N[C@@H](Cc1c[nH]cn1)C(=O)N[C@@H](Cc1ccc(O)cc1)C(=O)N[C@@H](Cc1ccc(O)cc1)C(=O)N[C@@H](CC(N)=O)C(=O)N[C@@H](Cc1c[nH]c2ccccc12)C(=O)N[C@@H](CC(C)C)C(=O)N[C@H](C(=O)N[C@@H](CCCNC(=N)N)C(=O)N[C@@H](CCC(N)=O)C(=O)N[C@@H](CCCNC(=N)N)C(=O)N[C@@H](Cc1ccc(O)cc1)C(N)=O)[C@@H](C)O)C(C)C) [Compound 193]
